The source of these data is US20240309093A1 (MINGHUI PHARMACEUTICAL HANGZHOU, published 2024).

In assay [1] the target is T1, recombinant human PD-1-Fc-Biotin (human, UniProt Q15116 25-167, biotin (site not stated)).
T1 construct: also called antigen protein human PD-1; not shown: Fc
The experiment in a line: competitive ELISA; PD-L1-mFc coated, 0.5 µg/mL PD-1-Fc-Biotin, streptavidin-HRP. How it is done:
The plates were washed three times with PBST. 5% PBS-Milk was added and incubated at room temperature for 1 hr. All the nanobody-Fc fusion proteins were subject to 3-fold gradient dilutions with an initial concentration of 10 μg/mL, added into each well at 30 μL/well, and incubated at room temperature for 1 hr. […] The well plates were washed with PBST between incubations.

Assay [2] deals with PD1 on Jurkat-NFAT-PD1 transgene cells. The experiment in a line: cell-based or functional assay.
The target in assay [3] is T2, recombinant human PD-1-his protein (human, UniProt Q15116 25-167).
T2 construct: also called hPD-1-his; not shown: his tag
The experiment in a line: ELISA; PD-1-his coated 2 µg/mL, anti-human IgG Fc-HRP. How it is done:
(§1) The plates were washed three times with PBST. 5% PBS-Milk was added and incubated at room temperature for 2 h. The plates were washed three times with PBST. All the nanobody-Fc fusion proteins were subject to 3-fold gradient dilutions with an initial concentration of 10 μg/mL, added into each well at 30 μL/well, and incubated at room temperature for 1 hr. The plates were washed three times with PBST. The secondary antibody Goat-Anti-Human-IgG-Fc-HRP was diluted at 1:8000, added into each well at 30 μL/well, and incubated at room temperature for 50 min. The plates were washed nine times with PBST. TMB was added into each well at 30 μL/well and developed at room temperature in dark for 1 min to 5 min. 2 M hydrochloric acid was added at 30 μL/well to stop the reaction. The OD450 absorbance value was read by a microplate reader. Graphpad Prism software was used to fit the curve and calculate the EC₅₀ value (see Table 7).

The target of assay [4] is T2, recombinant human PD-1-his protein. Described as above. How it is done: as §1, with “PBS-Milk” for “PBS-Milk was added”, “3-folded” for “3-fold”, “dilution” for “dilutions”, “calculate” for “calculate the”, “values.” for “value (see Table 7).”
This is another data set of the same source.

Assay [5] addresses T1, recombinant human PD-1-Fc-Biotin. As to the kind of experiment: competitive ELISA; PD-L1-mFc coated, 0.5 µg/mL PD-1-Fc-Biotin, streptavidin-HRP. Here is the method:
The plates were washed three times with PBST. 5% PBS-Milk was added and incubated at room temperature for 1 hr. All the nanobody-Fc fusion proteins were subject to 3-fold gradient dilutions with an initial concentration of 10 μg/mL, added into each well at 30 μL/well, and incubated at room temperature for 1 hr. […] The plates were washed with PBST between incubations.
This is another data set of the same source.

Assay [6] concerns the target T3, recombinant human PD-1 (C-Fc & C-Avi & C-6×His) (human, UniProt Q15116 25-167).
T3 construct: not shown: C-terminal Fc, Avi tag and 6×His tag
As to the kind of experiment: competitive ELISA; PD-L1 (C-Fc) coated, 0.5 µg/mL PD-1 (C-Fc & C-Avi & C-6×His), streptavidin-HRP. How it is done:
The plates were blocked with 1% casein. […] The plates were washed with PBST between incubations. Horseradish peroxidase-labelled streptavidin (1:10000) was used for detection, and Graphpad Prism software was used to fit the curve and calculate the EC₅₀ value, with the results shown in Table 3.

The target in assay [7] is T4, recombinant mouse PD-1-his protein (mouse, UniProt Q02242 25-167, limits assumed).
T4 construct: not shown: his tag
T4 sequence (looked up): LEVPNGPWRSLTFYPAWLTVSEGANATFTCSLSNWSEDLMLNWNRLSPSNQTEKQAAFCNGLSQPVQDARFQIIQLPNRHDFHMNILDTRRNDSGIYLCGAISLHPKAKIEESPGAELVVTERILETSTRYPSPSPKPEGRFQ
The experiment in a line: ELISA; PD-1-his coated 2 µg/mL, anti-human IgG-HRP. Here is the method:
Ninety-six-well Greiner plates were coated with 2 μg/mL of recombinant human PD-1-his protein, recombinant monkey PD-1-his protein and recombinant mouse PD-1-his protein at 4° C. overnight. The next day, the plates were blocked with 1% casein. […] Then, the plates were washed with PBST. Anti-human IgG-HRP (diluted in 1% casein at 1:5000) was added and incubated for 1 hr., and binding detection was performed.

Assay [8] deals with T2, recombinant human PD-1-his protein. As to the kind of experiment: SPR (Biacore 8K); PD-1-his amine-coupled to CM5, 1:1 Langmuir fit. Here is the method: About 250RU of recombinant human PD-1-his protein was coupled to a CM5 chip at 25° C. using an amine coupling kit (GE Healthcare, Cat No. BR100050) according to standard amine coupling procedure. […] (five concentrations were detected). The binding time was 120 s, and the dissociation time was 600 s. The curve was fitted with 1:1 Langmuir binding model using Biacore®8K analysis software (BIAevaluation) to determine the kinetic constants thereof, such as, association rate constant, dissociation rate constant, equilibrium dissociation constant, etc.

The target is the same in assay [9]. As to the kind of experiment: ELISA (first round of humanization); PD-1-his coated 2 µg/mL, anti-human IgG Fc-HRP. Here is the method:
96-well ELISA plates were coated with 2 μg/mL of recombinant human PD-1-his antigen protein at 30 μL/well at 4° C. overnight. The plates were washed three times with PBST. 5% PBS-Milk was added and incubated at room temperature for 2 h. The plates were washed three times with PBST. All the nanobody-Fc fusion proteins were subject to 3-fold gradient dilutions with an initial concentration of 10 μg/mL, added into each well at 30 μL/well, and incubated at room temperature for 1 hr. The plates were washed three times with PBST. The secondary antibody Goat-Anti-Human-IgG-Fc-HRP (purchased from Sigma) was diluted at 1:8000, added into each well at 30 μL/well, and incubated at room temperature for 50 min. The plates were washed three times with PBST. TMB (purchased from SurModics) was added into each well at 30 μL/well and developed at room temperature in dark for 1 min to 5 min. 2 M hydrochloric acid was added at 30 μL/well to stop the reaction. The OD450 absorbance value was read by a microplate reader.

Assay [10] has as its target T5, human PD-1 on HEK293 cells overexpressing human PD-1 (human, UniProt Q15116 25-288).
T5 construct: whole, on cells; also called HEK293/hPD1; hPD-1
As to the kind of experiment: competitive flow cytometry on HEK293 cells overexpressing human PD-1; 1.0 µg/mL biotinylated human PD-L1 as competitor, PE-SA. Here is the method:
The cells were harvested and washed once with test buffer. […] The data were analyzed using FCS Express 6 Plus and GraphPad Prism 5 software.

Assay [11] deals with T5, human PD-1 on HEK293 cells …. As to the kind of experiment: flow cytometry on HEK293 cells overexpressing human PD-1; PE-anti-human IgG. Here is the method: HEK293 cells overexpressing the human PD-1 were cultured in a DMEM medium containing 10% FBS in a CO₂ incubator (37° C., 5% CO₂). The cells were harvested and washed once with test buffer. Cells were counted and detected for viability. […] The cells were washed with washing buffer, and 100 μL of PE-anti-human IgG was added in accordance with the instruction and incubated in dark at 4° C. for 1 hr. The cells were washed three times with washing buffer, and individual samples were re-suspended in 200 μL of PBS and detected by flow cytometer. The data were analyzed using FCS Express 6 Plus and GraphPad Prism 5 software.

Assay [12] concerns the target T6, recombinant human PD-1 protein (human, UniProt Q15116 25-167, limits assumed).
T6 construct: also called recombinant human PD-1 antigen; human recombinant PD-1
The experiment in a line: competitive ELISA; PD-1 coated 2 µg/mL, 4 µg/mL PD-L1-Fc as competitor, anti-human IgG-HRP. How it is done: Ninety-six-well plates were coated with recombinant human PD-1 antigen (2 μg/mL) at 4° C. overnight. The plates were blocked with 1% casein. […] The plates were washed with PBST between incubations.

Positions count from the first letter of the chain named. Like-named read-outs stand apart in the source and are kept apart here.

T2 sequence (Q15116 25-167 limits assumed): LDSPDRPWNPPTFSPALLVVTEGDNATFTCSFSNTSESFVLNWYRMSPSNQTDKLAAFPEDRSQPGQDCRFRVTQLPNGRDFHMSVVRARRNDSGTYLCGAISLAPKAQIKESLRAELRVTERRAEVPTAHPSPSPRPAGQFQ
T1 sequence (Q15116 25-167 limits assumed): as above
T5 sequence (Q15116 25-288): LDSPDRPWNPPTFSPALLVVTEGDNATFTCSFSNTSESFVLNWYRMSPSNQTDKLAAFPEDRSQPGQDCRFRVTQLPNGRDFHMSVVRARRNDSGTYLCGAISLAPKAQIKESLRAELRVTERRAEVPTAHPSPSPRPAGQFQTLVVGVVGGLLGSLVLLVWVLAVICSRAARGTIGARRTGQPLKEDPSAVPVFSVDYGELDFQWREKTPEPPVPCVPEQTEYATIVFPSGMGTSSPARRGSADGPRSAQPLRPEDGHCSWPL
T3 sequence (Q15116 25-167 limits assumed): as the sequence (Q15116 25-167 limits assumed) above
T6 sequence (Q15116 25-167 limits assumed): as above

B1: MHPD1-A-7 H Fc (Fc fusion)
chain: QVQLVESGGGLVQPGGSLRLSCATSGSRRSIYAMGWFRQAPGKGLEFVAGIGWAYATTYYADSVKGRFTISRDNTKNTLYLQMNSLRAEDTAVYYCAADLDHSGFDYWGQGTLVTVSS
notes: parent of the second round; also called parent MHPD1-A-7 H Fc; not shown: Fc
Regarding B1, the results for the IC50 in assay [1] and in assay [5] were 0.316 nM and 0.778 nM, respectively. Besides, in [2], the “luciferase reporter gene fluorescence signal, Jurkat-NFAT-PD1 effector cells with Hep3B-OS8-PDL1 target cells (EC50)” value is 0.07 nM. Also, the EC50 in assay [3] is 0.135 nM; in assay [4], 0.149 nM.

B2: MHPD1-A-4 H Fc (Fc fusion, not shown: a dimerising Fc or GST)
chain: B1 chain with T24A, R28V, R29G, Y55F
In the case of B2, the IC50 in assay [1] came to 0.281 nM. In addition, the “luciferase reporter gene fluorescence signal, Jurkat-NFAT-PD1 effector cells with Hep3B-OS8-PDL1 target cells (EC50)” value in [2] is 0.09 nM. In assay [3], the EC50 is 0.169 nM.

B3: MHPD1-A Fc (Fc fusion)
chain: QVQLVESGGGSVQVGGSLTLSCAASGSDPSIYAMGWFRQAPGKEHEFVAGIGWSAATTYYADSVKGRFGISRDNTKNTVALLMNSLKPEDTAIYYCAADLDHSGFDYWGQGTQVTVSS
notes: C-terminal of VHH directly connected to the N-terminal of the human Fc hinge region; also called nanobody-Fc fusion protein; fusion protein; not shown: human Fc fragment with hinge
Take B3: the EC50 in assay [6] was 0.499 µg/mL; in assay [9] it was 0.14 µg/mL; in assay [10], 0.549 µg/mL; in [11] it was 0.245 µg/mL. In assay [7], the binding result is “no binding (tested: 5 µg/mL and 1.67 µg/mL)”. Besides, the Kd in [8] turned out to be 0.0425 nM. For the same molecule, the koff in [8] is 1.95e-05 s⁻¹. Besides, the kon in assay [8] stood at 460000 M⁻¹ s⁻¹.

B4: MHPD1-A (VHH)
VHH: B3 chain
notes: tag not described; also called VHH; single-domain antibody MHPD1-A
Turning to B4, the EC50 in [12] was determined as 1.71 µg/mL.
